From patent publication US20250296985A1 (TRANSLATIONAL HEALTH SCIENCE AND TECHNOLOGY INSTITUTE, published 2025)
Read-outs that look alike come from different tables or passages of the source.

Assays:
[1] = molecular target: T1, Biotinylated wild type SARS-CoV-2 receptor binding domain (RBD) antigen (SARS-CoV-2, Wuhan isolate (wild type), UniProt P0DTC2 319-541)
[2] = molecular target: T1, Biotinylated wild type SARS-CoV-2 …; remark: listed apart in the source

B1: THSC20.HVTR26 (antibody, V domains shown)
VH: EVQLVESGGGLVQPGGSLRLSCAASGFTVSSNYMSWVRQAPGKGLEWVSAIYSGDSTYYADSVKGRFTISRHNPKNTLYLQMNSLRAEDTAVYYCARLVGALTNIVVSGDGGAFDIWGQGTMVTVSS
VL: SYELTQPASVSGSPGQSITISCTGTSSDVGSYNLVSWYQQHPGKAPKLMIYEVSKRPSGVSNRFSGSKSGNTASLTISGLQAEDEVDYYCCSYAGSSTWVFGGGTKLTVL
[1]
  Kd: 0.22 nM
[2]
  Kd: 0.255 nM

B2: THSC20.HVTR88 (antibody, V domains shown)
VH: QVQLVQSGAEVKKPGASVKVSCKASGYPFTSYVISWVRQAPGQGLEWMGWISAYNGNTDYAQKLQGRVTMTTDTSTSTAYMELRSLRSDDTAVYYCAREGKYSSGWSYSEYFDYWGQGTLVTVSS
VL: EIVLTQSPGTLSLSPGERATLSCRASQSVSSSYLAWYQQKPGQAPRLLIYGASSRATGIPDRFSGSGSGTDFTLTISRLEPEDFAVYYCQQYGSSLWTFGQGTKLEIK
[2]
  Kd: 0.427 nM

B3: THSC20.HVTR04 (antibody, V domains shown)
VH: QVQLVESGGGVVQPGRSLRLSCAASGFTFSNYAIHWVRQAPGKGLEWVAVVSYDGSNKYYAESVKGRFTISRDNSKNTLSLQMISLRPEDTAVYYCASVADTAMVPEWYFDLWGRGTLVTVSS
VL: QSVLTQPRSVSGSPGQSVTISCTGTSSDVGAYNYVSWYQQHPGKAPKLMIYDVSARPSGVPDRFSGSKSGNTASLTISGLQAEDEADYYCCSYAGSWVFGGGTKLTVL
[1]
  Kd: 0.19 nM
[2]
  Kd: 0.196 nM

B4: THSC20.HVTR11 (antibody, V domains shown)
VH: EVQLVQSGAEVKKPGSSVKVSCKASGGTFSSYTISWVRQAPGQGLEWMGRIIPILGIANYAQKFQGRVTITADKSTSTACMELSSLRSEDTAVYFCARIRGYSGYGSSYYFDYWGQGTLVTVSS
VL: QSVLTQPPSVSGAPGQRVTISCTGSSSNIGAGYDVHWYQQLPGTAPKLLIYGNSNRPSGVPDRFSGSKSGTSASLAITGLQAEDEADYYCQSYDSSLSHEVFGGGTKLTVL
[2]
  Kd: < 0.001 nM
  koff: < 1e-07 s⁻¹
  kon: 103000 M⁻¹ s⁻¹

B5: THSC20.HVTR39 (antibody, V domains shown)
V domain 1: QVQLQESGPGLVRPSETLSLTCIVSGGSINSRSYSWGWIRQPPGKGLEWIGNVYYSGTTYYNPSLKSRVTISVDTSKNQFSLNLSSVTAADTAVYYCARNLFYYDRSGSSHHDAFDIWGQGTMVTVSS
V domain 2: HGYVRPLSVAPGQTARITCGGNNIGSKSVHWYQQKPGQAPVLVVYGDGDRPSGIPERFSGSNSGNTATLTISRVEAGDEADYYCQVWDRGSDVWVFG
[2]
  Kd: 0.513 nM

B6: THSC20.HVTR55 (antibody, V domains shown)
VH: EVQLVQSGAEVKKPGESLRISCKGSGFRFTNYWIGWVRQMPGKGLEWMGIIYPGDSDTRYSPSFQGQVTISADKSLSTAYLQWSSLQASDTAIYYCARRDRWELDPLDYWGQGTLVTVSS
VL: DIVMTQSPSTLSASVGDRVTITCRASQSISSWLAWYQQKPGKAPNLLIYKASSLESGVPSRFSGSGSGTEFTLTISGLQPDDFATYYCQHYNGYPYTFGQGTKLEIK
[2]
  Kd: < 0.001 nM
  koff: < 1e-07 s⁻¹

B7: THSC20.HVTR06 (antibody, V domains shown)
VH: QLQLVQSGSELKKPGASVKVSCKASGYTFTKYTVNWVRQAPGQGLEWMGWINTNTGNPTSAQGFTGRFVFSLDTSVSTAYLHISSLKTEDTAVYYCARVLGDQQVVGGDDYYYYYAMDVWGQGTPVTVSS
VL: SYELTQPPSVSVSPGQTASITCSGDKLGDKYASWYQQKPGQSPVLVIYQDTKRPSGIPERFSGSNSGNTATLTITGTQAMDETDYYCQAWDNSGWVFGGGTKLTVL
[2]
  Kd: 0.635 nM
